Several values for one entry are separate records, joined by “and”; a condition that tells them apart may be missing. Equal values may be shown once.
B1: 杂交瘤细胞株10C3 CGMCC No.1717分泌的单克隆抗体 (antibody, mouse IgG2b, V domains shown)
VH: QVQLEESGGALVKPGGSLKLSCAASGFTFSTYAMSWVRQTPEKRLEWVATISSGGDYTHYPDSVKGRFTISRDNARNTLYLQMSSLRSEDTAMFYCARPYYGSSYWFYDVWGAGTTVTVSS
VL: DIVLTQTPVSIIASRGEKVTITCRARSSISSTYLHWYQQKPGSSPKLLIYRTSILASGVLDSFSGSGSETSDTLTISCMQDEVAATYYCQQGSSSPLTFGAGTKLELKR
notes: the mouse constant regions are not; Hybridoma supernatant was used in the ELISA and ascites-purified antibody in the cell assays; also called 10C3Ab; anti-MIF
B2: 人-鼠嵌合抗体ch-10C3 (antibody, V domains shown)
VH: B1 VH
VL: B1 VL
B3: 抗MIF的Fab片段10C3Fab (Fab, V domains shown)
VH: B1 VH
VL: B1 VL
B4: 抗MIF单链抗体10C3scFV (scFv)
scFv: QVQLEESGGALVKPGGSLKLSCAASGFTFSTYAMSWVRQTPEKRLEWVATISSGGDYTHYPDSVKGRFTISRDNARNTLYLQMSSLRSEDTAMFYCARPYYGSSYWFYDVWGAGTTVTVSSGSSGSGSSGSGSSGSDIVLTQTPVSIIASRGEKVTITCRARSSISSTYLHWYQQKPGSSPKLLIYRTSILASGVLDSFSGSGSETSDTLTISCMQDEVAATYYCQQGSSSPLTFGAGTKLELKR
notes: Heavy and light variable regions joined by a 15-residue Gly/Ser-rich linker; Expressed from pET-26b in BL21 with a 6xHis tag

How the values were obtained:
大肠杆菌表达的GST-MIF重组蛋白 [1] = target: T1, 大肠杆菌表达的GST-MIF重组蛋白 (human, UniProt P14174 1-115); test: ELISA on coated GST-MIF (10 ug/ml); antibody concentration at 50% of the maximal reading is taken as the dissociation constant
T1 construct: Coating antigen (10 ug/ml) of the ELISA that gave all the dissociation constants; GST is placed N-terminal by the name GST-MIF; also called 人MIF; not shown: GST tag and vector-encoded residues from pET-41a
T1 sequence (looked up): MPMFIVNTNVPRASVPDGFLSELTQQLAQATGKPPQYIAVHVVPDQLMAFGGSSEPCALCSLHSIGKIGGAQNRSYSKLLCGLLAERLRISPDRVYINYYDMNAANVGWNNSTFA

大肠杆菌表达的GST-MIF重组蛋白 [2] = target: T1, 大肠杆菌表达的GST-MIF重组蛋白; test: ELISA by the method of Example 1 (coated GST-MIF; concentration at 50% of the maximal reading)

| Binder | Kd (大肠杆菌表达的GST-MIF重组蛋白 [1]) | Kd (大肠杆菌表达的GST-MIF重组蛋白 [2]) [nM] |
| --- | --- | --- |
| B1 | 3 nM and 0.48 µg/mL |  |
| B2 |  | 3 |
| B3 |  | 10 |
| B4 |  | 30 |
